In a protein production outcome set (Wang et al. 2014):

Assay: label from the status in PepcDB records
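Also: failed if final PepcDB status was selected cloned or expressed and not failed if soluble or beyond.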

Sequence | protein production
MSLERNYEESALFEHQFWLKVLTDHAQFLLDALAPKEKEDIKKATYFVETFTNLLNKVRNVNLMAFSKEAEQAAKEIRAFKLNIIQKQLEGKITIHFTPTFINHMVNEVEEYIAVLEFLKKGEVPPVFHELHYHLVWLTDAAGHAGSISGGLDLVEKRLKEKSEEFTKHFEQFYLKAVEMTGYLRTELHHFPALKKFTKDVSLELKLFSHFLHEVEELELSNEVLSVLSARMADHMAREECYYLLKLAQSSGLEMPKCNPLEGHHHHHH | not failed
MTVEEAIALVEQLLSGTRLTKVQEIVFRQCWAGQTYSDIALESDYDLGYIKDVGSELWRSLSQALGEKVTKKNLYTVLKRAAKQNSINPSSSLQLPSLANYTDWGEAIDVSQFYGRTHDLATLSRWVLQDNCRVVSLLGMGGIGKTALSVKLAQQLQGQFEYVIWRSLRHAPSFSDKLTECIKILSNQQVTTLPASSHEQITYLIEYLRKSRCLLILDNFDTLLQDGKRAGSYRQGYEPYGELLWRLGETQHQSCVLITSREKPAQIAALEGDGLPVRTLALSGLEVAAGQTILTLKGLSGSEDQTRQLVECYGGNPLALKIAATSIRDLHEGSIANFLSEGTTVFQGIGHLLEDQFQRLSTLEQQLMYWLAINREKVSSTKLQTAFTSPLSKPKLIETLESLRWRSLIESNTGQFTQQPVVMEYVTDSLVEQVCQEIITESPQYLLTHALMQVQAKDYIRDSQINLIVCPILKQLQITLGSVHQLDLKLGRLIRKLQSKVIETVGYGGGNLLNLLAQLDTDLTGYDFSGLDMRECDLRTVNLHAVNFTQTTFRDCVFAATFGGITSVAFSRDGCQLATSDTSGVINIWDVNNGKQLFNCQEHNSWIWDVAFSSVAPVLASCGQDHTIKLWNTTTGECFNTLHGHTSIVTSVAFSPEGKLLASSSYDHSVKVWDLDTGECLQTFLGHDACVWSVVFHPVGQILATAGEDNTIKLWELQSGCCLKTLQGHQHWVKTIAFNSGGRILASGSFDQNVKLWDIHTGKCVMTLQGHTGVVTSVAFNPKDNLLLSGSYDQSVKVWDRKTGRCLDTLKKHTNRIWSVAFHPQGHLFVSGGDDHAAKIWELGTGQCIKTFQGHSNATYTIAHNWEHSLLASGHEDQTIKLWDLNLHSPHKSNVNTHPFRILQGHSNRVFSVVFSSTGQLLASGSADRTIKLWSPHTGQCLHTLHGHGSWVWAIAFSLDDKLLASGSYDHTVKIWDVSSGQCLQTLQGHPGSVLAVAFSCDGKTLFSSGYEKLVKQWDVETGYCLQTWEADSNRVWAVAVSRDNQYLATGGDDSVVRLWDIGKGVCVRTFSGHTSQVICILFTKDGRRMISSSSDRTIKIWNVSTGECLATLQAHDHWVWSLYLTPDEKTLLSSSWDETIKCWNISTGECWQTLRPARPYEGMIINEVVGLSQAQIATLKALGALEVN | failed
MSTLKLFVHNHSSKGDQSFLKTITFAITHFTVAFTVAYLLTGDILIGSLIAMVEPAINTVAYFFHEKIWARHQRNTTANAMNLRQNTH | failed
MSSENDFVEFSSMFERIIQGRGDGLSRFLPVIVALAAREDDDDQGSTDQTTRRGDPLSPRFVMIGSRSGLDDFFSDGGKQGRSPALKSEVENMPRVVIGEDKEKYGGSCAICLDEWSKGDVAAEMPCKHKFHSKCVEEWLGRHATCPMCRYEMPVEEVEEEKKIGIWIGFSINAGDRRN | failed
TQIQNRTRRAKRALAARGLTEAVTWSFISKPFAEAFGGGQPELALANPIASDLSDMRPSLLPGLIAAAQANADRGSPDLALFEVGQVFKGDRPQDQFMAASGVRRGVASSAGLGRHWSGSAQATALDAKADAFAVLAAAGAPMAGLQIATNKLPAWLHPGRSGAIQIGPQNVLGYFGELHPRVLEQLGADGPLVAFEVILEKIP | not failed
MKLALFDLDHTLLNTDSDHSWGEFLVNEGLVDPVHHRQMNDKFYEDYKAGQLDPIAYNEFVFEFLTQNTPEVLTDLHALFMQKVIRPQMRPKGFDGIKKHQNLGHDIVGITATSDFITAPIFRAFGITEIIATNAEVQDGKYTGKVAGLPCYQKGKLARLDQWLAGRSVEESWAYSDSINDRFLLEYATHAIAVNPDDRLEKLAIDQGWTIEDWSI | failed
MSEEKNLVINANDSLGEIVIAPEVIEVIIGIAASKVEGVYGMRGTFANNVNELLGRAAHGKGVYLRTEEEGLKVDIYCYLNYGVSVPKVALEMQDRVKQQVLFMTDIDLVEVNIHVVAVVPEKIPQPDLNELFPEDEDGEENELEHHHHHH | not failed
MDQKELQVRKEIQELSFLIFTEPNNYKHYYERGILYGGEHIKSTECRESDYHGDYSQAIEDFDKVIELQPNFANAYYHKACIYFDLGIDDDEAESLLEKALALEPNNSAYTIKYAEVITYHGENGDIAAELLEKVLVQDYSADNCILSAGYLLQYASYDFLIGNDVQALQTYQKAMKRLQHAVEKDHECLEYATNMWSDFAEGCGYDHESIKNGSSLLLPQISVWM | failed
MPTLGFRFRAYTDEQTLRALKAQLKSACKIYNTLRWADIYFYQRDGKGLTRTELRQLALDLRKQDDEYKQLYSQVVQQVADRYYEAKKRFFEGLAHFPKEKKPHKHYSLVYPQYGWKILQVREIRKGSKKKLITLKLSNLGTFKVIVHRDFPLDKVKRVVVKLTRSERIYITFVVDHEFPKLPNTGKVVAIDVGVEKLIVTSDGEYFPNLRPYEKALWKVKHLHRELSRKKFLSHNWFKAKVKLARAYEYLKNLRTDLYMKLGKWFAEHYDVVVMEGIHVKQLIGKSLRSLRRRLSDVAFSELRDLIKYQLEKYGKKLILVNPAYTSKTCAKCGYVKEDLSLSDRVFVCPNCGWIADRDYNASLNILRGSGSERPLVWSSALYQYSGMAELLEHHHHHH | not failed
MLHVHILSWVLAIILFIATYLNYSKTQGASPYYKPLHMALRLFMLLTLISGFWELIEEFMAASNGEGGNHMLLTLKMLCGLAVIAFMEISIAKRKKQQTSHKFFWITIILIIITMAIGVILPWGPISKIFGIS | failed
SVDKNRTLHELSSKNFSRTPNGLIFTNDLKTVYSIFLICLDLKEKKHSSDTKSFLLTAFTKHFHFTFTYQEAIKAMGQLELKVDMNTTCINVSYNIKPSLARHLLTLFMSSKLLHTPQDRTRGEPKEKVLFQPTPKGVAVLQKYVRDIGLKTMPDILLSSFNSMKLFTFERSSVTDSIIHSDYLIHILFIKMMGAKPNVWSPTNADDPLPCLSSLLEYTNNDDTFTFEKSKPEQGWQAQIGNIDINDLERVSPLAHRFFTNPDSESHTQYYVSNAGIRLFENKTFGTSKKIVIKYTFTTKAIWQWIMDCTDIMHVKEAVSLAALFLKTGLIVPVLLQPSRTDKKKFQISRSSFFTLSKRGWDLVSWTGCKSNNIRAPNGSTIDLDFTLRGHMTVRDEKKTLDDSEGFSQDMLISSSNLNKLDYVLTDPGMRYLFRRHLEKELCVENLDVFIEIKRFLKKMTILKKLIDSKHCDKKSNTSTSKNNIVKTIDSALMKQANECLEMAYHIYSSYIMIGSPYQLNIHHNLRQNISDIMLHPHSPLSEHFPTNLYDPSPASAESAASSISSTEADTLGEPPEVSLKPSKNLSNENCSFKKQGFKHQLKEYKPAPLTLAETHSPNASVENSHTIVRYGMDNTQNDTKSVESFPATLKVLRKLYPLFEIVSNEMYRLMNNDSFQKFTQSDVYKDASALIEIQEKC | failed
MMDSIAGPIQVLSRQFPNAQQGKGAALNHAFQIVLTDAEKGHYSWDQVLVGVVDADGFFSENIVNELTAVFTDTTVCAAQTRIKMKDVTNFMFIAQDVEFFTINNFIQKARRATKTIGLGGNGQFFRLSMITEHLGYQPWGNALLDDYELTIKLMLKELSIAYIDEAFMAQEALRDVKRFIRQRSRWVQGNLDCLAYLPRVIKSKSLTLRQKCGIYYFLAQPFINLVAGMLVFVLTGLQLQHLYRLGFSLSLVISFVLAVSISLVFGIFFTINYYRELKNFQLKVPAKLGLIILPFTISYMYLILFVSVVMAYYRFIKGNSTWIKTERN | failed
MEMEERKLKILQAIINDYINNGEPVGSRTIAKKYNLGISSATIRNEMADLEEMGYIEQLHTSSGRKPSDKGYRLYVDRLMEIPSMSVEEEMLIKAKIIDSALYEIDKLVKQAMSLVSEMTKLTCVVKSLSARKSYIKSISLINIEPNMILCVFITDSGMIKNSIIRVKSNIENSSLERIANILNSKLKGLTIEQINLEVINNIKKDLREYGHIFDCIMPNLYDILREADSTEVYKEGTMNIFNYPEFKDIEKAKEFLSVIDDRRILDTLFNASGGVTVNIGNENSIKEARDFSVVSSVYKYNGRPLGTIGIIGPTRIPYSKVIKVIMEVVDQINNNLDKMNNS | failed
MCKNSQYLHLPDEIPQQLMLLWESSDEVWGFKDLDSHYLYANNPFIELLNFPPEFCIKGLLDDELPHPSFAKFSSQFREQELLAAITKKRVSSIEMHYFGREQKLQPYLFDKFPLLNSKKECLGIIF | failed
MRKTYKYRLYTCERNKHLVESIELASVVWNHFVALTRRYYEIYGEYPGYYALKKHLTKLKQRDKGHWYDLNSQALQNVIERLDQAYQRFFEIDSAGRPGFKKREKYTSFTLTQTGWKLLGGNRVRIQNHNYKFVKSRPIKGEIKTVTIKRDACGYLWICFSVEKEPPTPELPRTGNAVGLDFGLKDFLVTSDGDRIQAPEPLQESLEEVQDLHKKLSRKERGSNNRKEAKRRLAKKYRQIDNQRKDFHFKLARRLFSRYDVVCIEELNVGAMKELWGRKVSDLGFASFVKILEHVAQKEGKEVRKIDRWFPSSQTCSDCSHRYEDLSLEERTWTCEECGSLHDRDLNAARNVLERALSSAEAGVRPSGAAARVARSS | failed
ATDVAARGLDISGVTHVYNYDIPQDPESYVHRIGRTGRAGKEGMAITFVQPREMGYLRIVEETTKKRMQPLQAPTWDEAFAGQLRVATEKIQEAITEENLADYKTFANELLEKYDATDIAAAMLKMLAKEPDKTPVHITEERPLPSRGGGGYKGK | not failed
MEQQKDYIELYENEELIEIREARMDDLDTIAKFNYNLAKETEGKELDMDVLTKGVKALLLDERKGKYHVYTVFDKVVAQIMYTYEWSDWRNGNFLWIQSVYVDKEYRRKGIFNYLFNYIKNICDKDENIVGMRLYVEKENINAKATYESLNMYECDYNMYEYEVIHS | failed
MGHHHHHHSHMAKTYDYLFKLLLIGDSGVGKTCVLFRFSEDAFNSTFISTIGIDFKIRTIELDGKRIKLQIWDTAGQERFRTITTAYYRGAMGIMLVYDITNEKSFDNIRNWIRNIEEHASADVEKMILGNKCDVNDKRQVSKERGEKLALDYGIKFMETSAKANINVENAFFTLARDIKAKMDKKLEGNSPQGSNQGVKITPDQQKRSSFFRCVLL | not failed
MDNSLLSEIWRQSLAFPWLSAVILNSFLLALAAIAPKKLLTPWGYGHAWVLGVIIWAALGWRGYLVVLAYFFVGSAVTRIGQKEKEAAGIAEKRSGQRGPENVWGSALTAALCALAIAFGPEPWQLWLALGYVASFSTKLSDTTASEVGKAYGKNTFLITTLQPVPRGTEGAVSVEGTLAGFAAGLALAVLGYGVGLISFGGIIFSTLAAFIATNLESVIGATLQNKWPWLTNEVVNGINTFLGAAIAIGIEATAQLI | failed
MFERLPVPLSRHERAGPPMPEIGPYTLHTVDTGRFGLDGGAMFGIVPKPLWSQRIEPDEQNRIPLSMRCLLLIGDGRVVLIDTGIGDTFEDTKFQDIFAVDHSGATLEGSLAAHGVAPVDVTDVVLTHLHFDHAGGSTRRIDGEPAVAFPNATYHVQRRHWNWAADPNPKEEQSFRSDTFAPIEEAGQLNLVEGETTLLPHVDVSLVHGHTEAQQTVTVRDDETTLVYVADLLPTTHHLSPAWTMAYDVRPLRTIEEKGEFLEQAADSEWKLFFEHDPEVAVADVERTDRGVQVVNERSLDAL | failed
MKLAIIIPVYNAEETIKRAILSVDTSVPYEIICINDGSTDQTQHVLTELQQKHPHIKVIHQSNQGAARSRNVGLEAMSEDVDAFLFLDADDEFLPSRIDLMVNAFNKNKETDVVIGQMARDVNGEWQVISTHQSMVKDAIVTLDRKPDILQSIGPGAKLFSSKYAGLRFDEDVVFCEEHTFIVKAFSKARDIQLIPNIVYGYNEREGSVTAQRADTFLPYMSDALKVRQRVMELLLLLDEKIYYSYRMDNLIVSYLIQAHLKKNNKITQSLLESVIEYMKAMQHTHYSGEAMFRIVRAVEQSATHWTKPLYLQWKKALSEVGIGRPGLIRFKLQVIPKKISFSGKESLKRIFKK | failed
